Experimental data published in paper PMC8278974.
One block for each substance: values may come before it.

Assays:
Assay in all cases: gel electrophoresis; eluent of Ni-charged magnetic beads (0.5 M NaCl, 20 mM HEPES, 500 mM imidazole, 0.5% Genapol X-80, pH 8.0) after heating the lysate at 90 °C for 10 min; 4–20% Mini-PROTEAN TGX Gel, 200 V for 27 min; self-assembly, octamer band
[1] = molecular target: M2 MspA (Mycobacterium smegmatis porin A mutant M2) (Mycobacterium smegmatis) (UniProt A0QR29)
[2] = molecular target: MspA-C (M2 MspA with cysteine at site 91) (Mycobacterium smegmatis)
[3] = molecular target: MspA-D (M2 MspA with aspartic acid at site 91) (Mycobacterium smegmatis)
[4] = molecular target: MspA-H (M2 MspA with histidine at site 91) (Mycobacterium smegmatis)
[5] = molecular target: MspA-M (M2 MspA with methionine at site 91) (Mycobacterium smegmatis)

- stoichiometry N [1]: 8
Substance: M2 MspA (Mycobacterium smegmatis porin A mutant M2) (from UniProt A0QR29 28-211) (natural protein)

- stoichiometry N [2]: 8
Substance: MspA-C (M2 MspA with cysteine at site 91) (natural protein)

- stoichiometry N [3]: 8
Substance: MspA-D (M2 MspA with aspartic acid at site 91) (natural protein)

- stoichiometry N [4]: 8
Substance: MspA-H (M2 MspA with histidine at site 91) (natural protein)

- stoichiometry N [5]: 8
Substance: MspA-M (M2 MspA with methionine at site 91) (natural protein)
